The record followed here is patent publication US20180244777A1 (NUMAB THERAPEUTICS, published 2018).

Where two headings read alike, the source gives them in different places.

Test [1] deals with T1, linear 15mer peptides derived from cynomolgus CD3ε residues 5-20 (Set 4) (cynomolgus).
T1 construct: also called peptides spanning residues 5-20
T1 peptide: EEMGSITQTPYQVSIS
Nature of the test: peptide array ELISA, Set 4. How it is done:
(§1) The binding of the antibodies to each of the synthesized peptides was tested by ELISA. The peptide arrays were incubated with primary antibody solution (overnight at 4° C.). After washing, the peptide arrays were incubated with a 1/1000 dilution of an antibody peroxidase conjugate (SBA, cat.nr.2010-05) for one hour at 25° C. After washing, the peroxidase substrate 2,2′-azino-di-3-ethylbenzthiazoline sulfonate (ABTS) and 2 μl/ml of 3% H₂O₂ were added. After one hour, the color development was measured. The color development was quantified with a charge coupled device (CCD)—camera and an image processing system.

The target of test [2] is T2, human CD3ε expressed on the cell surface of T cells (Jurkat cells; human CD8+ T cells) (human, UniProt P07766 23-207). As to the kind of experiment: cell-based or functional assay.
Test [3] concerns the target T2, human CD3ε expressed on the cell …. As to the kind of experiment: cell-based ELISA on Jurkat cells, CD3ε-deficient Jurkat subtracted. How it is done: (§2) Jurkat cells (clone E6-1), a human T cell line, were seeded at 300,000 cells/well in round bottom 96-well plates in 100 μl phosphate-buffered saline (PBS) containing 10% FBS. Five-fold serial dilutions of anti-CD3 rabbit monoclonal antibodies ranging from 90 nM to 0.0058 nM were added to the plates in 100 μl PBS containing 10% FBS. […] This secondary antibody was linked to the enzyme horseradish peroxidase (HRP). HRP activity was measured by addition of TMB substrate (3,3′,5,5′-tetramethylbenzidine, KPL, Cat. No. 53-00-00), which in a colorimetric reaction is processed by the HRP. The color intensity of the processed substrate is directly proportional to the amount of anti-CD3 antibody bound to Jurkat cells. To quantify color intensity, light absorbance (optical density) at the respective wave length was measured using a microtiter plate reader (Infinity reader M200 Pro, Tecan).
(§3) To correct for unspecific binding of the antibodies to unknown components presented on the cell surface of Jurkat cells, a CD3ε deficient derivative of the Jurkat T cell line (J.RT3-T3.5) was used. Binding of the monoclonal antibodies to this cell line was measured as described above for the Jurkat cells. For quantification of specific binding to Jurkat cells, the optical density for binding to the negative control was subtracted from the optical density for binding to Jurkat cells. Data were analyzed using a four-parameter logistic curve fit using the Softmax Data Analysis Software (Molecular Devices), and the molar concentration of anti-CD3 antibody required to reach 50% binding (EC₅₀, mid-OD of the standard curve) was derived from dose response curves.

Test [4] addresses T3, cynomolgus monkey heterodimeric single-chain CD3εγ extracellular domain (cynomolgus monkey, UniProt Q95LI5 22-117; Q95LI7 23-113). Nature of the test: SPR, rabbit IgG captured, cyno single-chain CD3εγ ECD injected.
The target in test [5] is T4, linear 15mer peptide derived from human CD3ε residues 2-16 (wild type of the substitution library, Set 1) (human).
T4 construct: Probed as a saturation mutagenesis library on a peptide array
T4 peptide: DGNEEMGGITQTPYK
Nature of the test: 15mer peptide array ELISA.

Test [6] deals with T5, linear 15mer peptide derived from cynomolgus CD3ε residues 2-16 (wild type of the substitution library, Set 2) (cynomolgus).
T5 construct: Probed as a saturation mutagenesis library on a peptide array
T5 peptide: DGNEEMGSITQTPYQ
Nature of the test: 15mer peptide array ELISA.

In test [7] the target is T3, cynomolgus monkey heterodimeric …. As to the kind of experiment: SPR, rabbit IgG captured, cyno single-chain CD3εγ ECD injected. This is another data set of the same source.
The target of test [8] is T6, linear 15mer peptides derived from human CD3ε residues 5-20 (Set 3) (human).
T6 construct: also called peptides spanning residues 5-20
T6 peptide: EEMGGITQTPYKVSIS
As to the kind of experiment: peptide array ELISA, Set 3. Here is the method:
as §1

Test [9] has as its target T3, cynomolgus monkey heterodimeric …. Nature of the test: SPR; ratio of the KDs for cyno and human single-chain CD3εγ.
The target in test [10] is T7, human heterodimeric single-chain CD3εγ extracellular domain (human, UniProt P07766 23-126; P09693 23-116).
T7 construct: extracellular domain; Produced in-house; also called scCD3γε; human CD3ge
Nature of the test: SPR, rabbit IgG captured, human single-chain CD3εγ ECD injected. How it is done:
(§4) Binding affinities of monoclonal rabbit anti-CD3 antibodies were measured by surface plasmon resonance (SPR) using a MASS-1 SPR instrument (Sierra Sensors). […] Rabbit monoclonal antibodies were captured by the immobilized anti-rabbit IgG antibody. Two-fold serial dilutions of human heterodimeric single-chain CD3εγ extracellular domain (produced in-house) ranging from 90 to 2.81 nM were injected into the flow cells for 3 min and dissociation of the protein from the IgG captured on the sensor chip was allowed to proceed for 5 min. After each injection cycle, surfaces were regenerated with two injections of 10 mM glycine-HCl. The apparent dissociation (kd) and association (ka) rate constants and the apparent dissociation equilibrium constant (KD) were calculated with the MASS-1 analysis software (Analyzer, Sierra Sensors) using one-to-one Langmuir binding model.

Test [11] has as its target T2, human CD3ε expressed on the cell …. As to the kind of experiment: cell-based ELISA on Jurkat cells. How it is done:
as §2, §3

Test [12] addresses T7, human heterodimeric single-chain CD3εγ …. Nature of the test: SPR, rabbit IgG captured, human single-chain CD3εγ ECD injected. How it is done: as §4
This is another data set of the same source.

Test [13] has as its target T8, cynomolgus monkey CD3ε expressed on the surface of HSC-F T cells (cynomolgus monkey, UniProt Q95LI5 22-198).
T8 construct: whole, on cells; also called cyno HSC-F T cells
Nature of the test: cell-based ELISA on cyno HSC-F T cells.

For test [14], the target named is T2, human CD3ε expressed on the cell …. As to the kind of experiment: cell-based or functional assay. This is another data set of the same source.

T3 sequence (Q95LI7 other isoform, or with tags, fused parts or gaps): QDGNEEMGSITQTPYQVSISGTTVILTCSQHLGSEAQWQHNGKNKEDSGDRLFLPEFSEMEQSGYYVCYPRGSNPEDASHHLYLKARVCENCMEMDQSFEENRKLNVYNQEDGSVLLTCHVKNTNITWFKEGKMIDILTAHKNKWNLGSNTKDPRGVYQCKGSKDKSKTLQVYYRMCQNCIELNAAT
T8 sequence (Q95LI5 22-198): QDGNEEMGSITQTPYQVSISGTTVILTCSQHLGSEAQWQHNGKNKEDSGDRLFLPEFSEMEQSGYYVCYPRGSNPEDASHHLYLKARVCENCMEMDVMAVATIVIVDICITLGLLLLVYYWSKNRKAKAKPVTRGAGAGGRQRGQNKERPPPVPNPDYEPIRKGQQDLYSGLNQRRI

B1: clone-06 (antibody, V domains shown)
VH: QSVEESGGRLVTPGTPLTLTCTVSGFPLSSYAMIWVRQAPGKGLEWIGMILRAGNIYYASWVKGRVTISKTSTTVDLKITSPTTEDTATYFCARRHYNREGYPIGIGDLWGPGTLVTVSS
VL: AQVLTQTPSSVSAAVGGTVTISCQSSESVYNNKRLSWFQQKPGQPPKQLIYTASSLASGVPSRFKGSGSGTQFTLTISDLECDDAATYYCQGEFTCSNADCFTFGGGTEVVVKG
notes: Recombinant rabbit IgG; also called Clone 6
B1: the binding result is given as “no binding” in [1], “binds” in [5], “binds” in test [6] and “no binding” in [8]. Moreover, in test [2], the “Fold increase in CD69 expression [MFI normalized to neg. ctrl.], 1.25 µg/ml anti-CD3 IgG” value was determined as 2.7 fold. The “Fold increase in CD69 expression [MFI normalized to neg. ctrl.], 5 µg/ml anti-CD3 IgG” value in test [2] turned out to be 5.1 fold. Also, in test [2], the “Fold increase in CD69 expression [MFI normalized to neg. ctrl.], 20 µg/ml anti-CD3 IgG” value is 5.3 fold. The EC50 in test [3] was 0.67 nM; in test [11], 0.67 nM; in test [13] it was 1.6 nM. Further, the Kd in test [4] is 8.95 nM; in [7], 8.95 nM; in [10] it was 2.23 nM; in test [12], 2.23 nM. Moreover, the results for the koff in test [7] and in test [12] were 0.00397 s⁻¹ and 0.00138 s⁻¹, respectively. Also, the kon was 444000 M⁻¹ s⁻¹ in test [7] and 618000 M⁻¹ s⁻¹ in test [12]. In addition, the “KD (human)/KD (cyno)” value in test [9] came to 4.

B2: clone-03 (antibody, V domains shown)
VH: QSLEESGGRLVTPGTPLTLTCTVSGFPLNRYAMLWVRQAPGKGLEWIGLITRADKKYYASWAKGRFTISKTSTTVDLEITGPTTEDTATYFCARRHYNTDGYPIAIGDLWGPGTLVTVSS
VL: AQVLTQTPSSVSAAVGGTVTISCQSNENIYSNNRLSWFQQKPGQPPNQLIYSASSLASGVPSRFKGSGSGTQFTLTISDLECDDAATYYCQGEFNCNSADCFTFGGGTEVVVKG
notes: Recombinant rabbit IgG; also called Clone 3
For B2, the binding result is given as “no binding” in [1], “binds” in test [5], “binds” in test [6] and “no binding” in test [8]. For the same molecule, the “Fold increase in CD69 expression [MFI normalized to neg. ctrl.], 1.25 µg/ml anti-CD3 IgG” value in [2] came to 2.6 fold. Further, the “Fold increase in CD69 expression [MFI normalized to neg. ctrl.], 5 µg/ml anti-CD3 IgG” value in test [2] is 4.6 fold. Moreover, the “Fold increase in CD69 expression [MFI normalized to neg. ctrl.], 20 µg/ml anti-CD3 IgG” value in [2] stood at 6.6 fold. Moreover, the EC50 in test [3] stood at 1.45 nM; in [11], 1.45 nM; in test [13] it was 23.9 nM. The Kd in [4] worked out at 11.5 nM; in test [7], 11.5 nM; in test [10], 0.905 nM; in test [12], 0.905 nM. Further, the koff in test [7] came to 0.00403 s⁻¹; in test [12], 0.000498 s⁻¹. Besides, the kon in test [7] came to 350000 M⁻¹ s⁻¹; in test [12] it was 551000 M⁻¹ s⁻¹. Further, the “KD (human)/KD (cyno)” value in test [9] was determined as 13.

B3: clone-02 (antibody, V domains shown)
VH: QSLEESGGRLVTPGTPLTLTCTVSGFPLSAYAMIWVRQAPGKGLEWIGMIIRSGTVYYANWAKGRFTISKTSTTVDLKITSPTTEDTATYFCARRHYNADGYPIGIGDLWGPGTLVTVSS
VL: AQVLTQTPSSVSAVVGGTVTISCQSSESVYSNNRLSWFQQKPGQPPKLLIYSASTLASGVPSRFKGSGSGTQFTLTITDLECDDAATYFCQGEFSCSSVDCFSFGGGTEVVVKG
notes: Recombinant rabbit IgG; also called Clone 2
B3: the binding result in test [1] is “no binding”; in [5], “binds”; in [6] it was “binds”; in [8], “no binding”. Besides, the “Fold increase in CD69 expression [MFI normalized to neg. ctrl.], 1.25 µg/ml anti-CD3 IgG” value in test [2] was determined as 3.3 fold. Also, the “Fold increase in CD69 expression [MFI normalized to neg. ctrl.], 5 µg/ml anti-CD3 IgG” value in [2] amounted to 4.6 fold. Moreover, in test [2], the “Fold increase in CD69 expression [MFI normalized to neg. ctrl.], 20 µg/ml anti-CD3 IgG” value was determined as 7.4 fold. The EC50 in test [3] was 0.71 nM; in [11], 0.71 nM; in test [13] it was 3.82 nM. Further, the Kd in [4] is 3.86 nM; in test [7], 3.86 nM; in test [10] it was 0.304 nM; in [12], 0.304 nM. Besides, the results for the koff in [7] and in test [12] were 0.00258 s⁻¹ and 0.000264 s⁻¹, respectively. For the same molecule, the results for the on-rate (kon) in [7] and in [12] were 668000 M⁻¹ s⁻¹ and 869000 M⁻¹ s⁻¹, respectively. Further, the “KD (human)/KD (cyno)” value in [9] worked out at 13.

B4: anti-IL5R×CD3ε scDb containing Numab's anti-CD3 domain (humanized clone 6), Example 9 (bispecific antibody)
chain: DIQMTQSPSSLSASVGDRVTITCQASQNIYSNLAWYQQKPGKAPKLLIYRASTLASGVPSRFSGSGSGTDFTLTISSLQPEDFATYYCQSNYGINYYGAAFGQGTKLTVLGGGGGSEVQLVESGGGLVQPGGSLRLSCAASGFPLSSYAMIWVRQAPGKGLEWIGMILRAGNIYYASWVKGRFTISRDNSKNTVYLQMNSLRAEDTAVYYCARRHYNREGYPIGIGDLWGQGTLVTVSSGGGGSGGGGSGGGGSGGGGSDIQMTQSPSSLSASVGDRVTITCQSSESVYNNKRLSWYQQKPGKAPKLLIYTASSLASGVPSRFSGSGSGTDFTLTISSLQPEDFATYYCQGEFTCSNADCFTFGQGTKLTVLGGGGGSEVQLVESGGGLVQPGGSLRLSCAASGFSLSSYDMTWVRQAPGKGLEWIGIIYVSGSAYYASWAKGRFTISRDNSKNTVYLQMNSLRAEDTAVYYCARINYGLDLWGQGTLVTVSS
With B4, the “EC50 in the dose-response curve of specific lysis of CHO-IL5R target cells at 64 hours” value in test [14] turned out to be 0.31 nM.
